In patent publication US20130089544A1 (AstraZeneca / MedImmune, published 2013):
Changes are numbered by the printed parent chain. Values belong to the binder of their own block, whether it stands above or below them.

What was measured:
[1] = molecular target: T1, human ErbB2, full length, on cells (human, UniProt P04626 23-1255); experiment: cell-based or functional assay
[2] = molecular target: T1, human ErbB2, full length, on cells; experiment: cell-based or functional assay; remark: listed apart in the source
[3] = molecular target: T1, human ErbB2, full length, on cells; experiment: cell-based or functional assay; remark: listed apart in the source
[4] = molecular target: T1, human ErbB2, full length, on cells; experiment: cell-based or functional assay; remark: listed apart in the source
[5] = molecular target: T1, human ErbB2, full length, on cells; experiment: cell-based or functional assay; remark: listed apart in the source
[6] = molecular target: T2, human ErbB2 ECD-myc/His fusion protein (human, UniProt P04626 23-652); experiment: SPR, Biacore 2000 medium resolution; mAb captured on goat anti-human IgG, ErbB2(ECD)-cMyc/His injected; 1:1 fit
T2 construct: Made in-house in 293T cells; also called hErbB2(ECD)/cMyc-His; huErbB2 (ECD)/c-myc-His; not shown: c-myc/His tag of the pSecTag2Hygro vector
Method: The binding affinity of eight of the anti-ErbB2 antibodies was measured by medium resolution Biacore. All experiments were performed using a Biacore 2000 instrument.
First, 12 high-density goat α-human IgG antibody surfaces over three CM5 Biacore chips were prepared using routine amine coupling. […] Before each antigen injection cycle, each mAb was captured for six to nine seconds at a 100 μL/min flow rate. A 2-minute wash step followed each capture injection to stabilize each mAb baseline. […] All samples were randomly injected with several mAb capture/buffer inject cycles interspersed for double referencing. […] A flow rate of 100 μL/min. was used for all injection cycles. The data was fit to a 1:1 interaction model using CLAMP.

[7] = molecular target: T2, human ErbB2 ECD-myc/His fusion protein; experiment: limited antigen ELISA, 31 ng/ml ErbB2 ECD-myc/His coated, supernatant 1:25
Method: […] […] Antigen-coated plates were washed three times, blocked with 1% non-fat skim milk/PBS for at least 30 minutes at room temperature, and then washed again three times. Each hybridoma line sample was titrated in 1% non-fat skim-milk/PBS 1:3 for 7 points starting from a 1:25 dilution. […] The next day, plates were washed three times and incubated with 50 μl of 400 ng/ml immunopure Goat anti-human IgG (Fc)-HRP (Pierce catalog #31416) for 1 hour at room temperature. Then, the plates were extensively washed and pat dried on paper towel to remove residual HRP in wells. HRP substrate TMB (enhanced K-blue TMB, Neogen catalog #308177) was added to each well and incubated for 30 min. The reaction was stopped by addition of 1N HCl. Optical density at 450 nm was read on a microplate reader (Titerteck Multiskan Ascent).

[8] = molecular target: T1, human ErbB2, full length, on cells; experiment: cell-based or functional assay; remark: listed apart in the source
[9] = molecular target: T2, human ErbB2 ECD-myc/His fusion protein; experiment: SPR, Biacore T100 high resolution; mAb captured on goat anti-human IgG, hHer-2(ECD)cMyc injected; 1:1 fit
Method: All experiments were performed using a Biacore T100 instrument. First, a high-density goat α human IgG antibody (Caltag H10500) surface was prepared over two CM5 Biacore chips using routine amine coupling. Each mAb was diluted in HBS-P running buffer containing 100 μg/ml Bovine serum albumin (BSA).
A capture level protocol was developed for all five mAbs. Before each antigen injection cycle, each mAb was captured for 15 to 30 seconds at a 20 μL/min flow rate. A 5-minute wash step followed each capture injection to stabilize each mAb baseline. […] The samples were prepared in the running buffer described above. All samples were randomly injected with several mAb capture/buffer inject cycles interspersed for double referencing. […] A flow rate of 50 μL/min. was used for all injection cycles.
All sensorgram data were fit to a 1:1 interaction model using CLAMP.

1 hr pTyr inhibition % (Heregulin-induced ErbB2 phosphorylation in MCF7 cells, hybridoma supernatant) [1]: 103% | 24 hr pTyr inhibition % (Heregulin-induced ErbB2 phosphorylation in MCF7 cells, hybridoma supernatant) [1]: 100% | % Inhibition @10 µg/ml (n1), ErbB2 phosphorylation in BT474 cells at 48 hours [2]: 37% | % Inhibition @10 µg/ml (n2), ErbB2 phosphorylation in BT474 cells at 48 hours [2]: 45% | % inhibition @36 µg/ml, SKBR3 cell proliferation [3]: 52% | EC50 (ng/ml), inhibition of SKBR3 cell proliferation [3]: 35.7 ng/mL | EC50 (ng/ml) n1, inhibition of Heregulin-induced ErbB2 phosphorylation in MCF7 cells [4]: 33.7 ng/mL | EC50 (ng/ml) n2, inhibition of Heregulin-induced ErbB2 phosphorylation in MCF7 cells [4]: 22.9 ng/mL | % Inhibition @10 µg/ml, Heregulin-induced MCF7 cell proliferation [5]: 96% | EC50 (ng/ml), inhibition of Heregulin-induced MCF7 cell proliferation [5]: 640 ng/mL | Kd [6]: 2.5 nM | koff [6]: 0.000256 s⁻¹ | kon [6]: 102000 M⁻¹ s⁻¹ | LA at 31 ng/ml (OD) [7]: 3.99 OD 450 nm | N1 % Inhibition @40 µg/ml, BT474 cell proliferation [8]: 38% | N1 EC50 (ng/ml), inhibition of BT474 cell proliferation [8]: 136 ng/mL | N2 % Inhibition @40 µg/ml, BT474 cell proliferation [8]: 39% | N2 EC50 (ng/ml), inhibition of BT474 cell proliferation [8]: 63 ng/mL
B1: monoclonal antibody 1.14.1 (antibody, V domains shown)
VH: EVQLVESGGGLVKPGGSLRLSCAASGFTFSSYSMNWVRQAPGKGLEWVSSISSSSSYIYYADSVKGRFTISRDNAKNSLYLQMNSLRAEDTAVYYCARGGDGYNYYYFDYWGQGTLVTVSS
VL: DIVMTQSPDSLAVSLGERATITCKSSQSVFFRSNNKNCLTWYQQRPGQPPNLLIYWASTRESGVPDRFSGSGSGTDFTLTINNLQAEDVAVYYCQQYFGSPFTFGPGTKVDIK
notes: Fully human IgG (gamma/kappa) from a XenoMouse XM3B-3 hybridoma; constant regions not tied to it

1 hr pTyr inhibition % (Heregulin-induced ErbB2 phosphorylation in MCF7 cells, hybridoma supernatant) [1]: 77% | 24 hr pTyr inhibition % (Heregulin-induced ErbB2 phosphorylation in MCF7 cells, hybridoma supernatant) [1]: 99% | % inhibition @36 µg/ml, SKBR3 cell proliferation [3]: 37% | EC50 (ng/ml), inhibition of SKBR3 cell proliferation [3]: 48.5 ng/mL | EC50 (ng/ml) n1, inhibition of Heregulin-induced ErbB2 phosphorylation in MCF7 cells [4]: 42.9 ng/mL | EC50 (ng/ml) n2, inhibition of Heregulin-induced ErbB2 phosphorylation in MCF7 cells [4]: 20.4 ng/mL | % Inhibition @10 µg/ml, Heregulin-induced MCF7 cell proliferation [5]: 81% | EC50 (ng/ml), inhibition of Heregulin-induced MCF7 cell proliferation [5]: 3020 ng/mL | Kd [6]: 5.1 nM | koff [6]: 0.000655 s⁻¹ | kon [6]: 128000 M⁻¹ s⁻¹ | LA at 31 ng/ml (OD) [7]: 2.35 OD 450 nm | N1 % Inhibition @40 µg/ml, BT474 cell proliferation [8]: 24% | N1 EC50 (ng/ml), inhibition of BT474 cell proliferation [8]: 198 ng/mL | N2 % Inhibition @40 µg/ml, BT474 cell proliferation [8]: 29% | N2 EC50 (ng/ml), inhibition of BT474 cell proliferation [8]: 74.4 ng/mL
B2: monoclonal antibody 1.24 (antibody, V domains shown)
VH: B1 VH
VL: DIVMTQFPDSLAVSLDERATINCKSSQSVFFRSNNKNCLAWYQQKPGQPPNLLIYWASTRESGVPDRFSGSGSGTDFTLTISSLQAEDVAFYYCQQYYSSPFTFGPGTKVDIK
notes: Fully human IgG (gamma/kappa) from a XenoMouse XM3B-3 hybridoma; constant regions not tied to it; also called 1.24.3

% Inhibition @10 µg/ml (n1), ErbB2 phosphorylation in BT474 cells at 48 hours [2]: 37% | % Inhibition @10 µg/ml (n2), ErbB2 phosphorylation in BT474 cells at 48 hours [2]: 30% | % inhibition @36 µg/ml, SKBR3 cell proliferation [3]: 43% | EC50 (ng/ml), inhibition of SKBR3 cell proliferation [3]: 41.7 ng/mL | Kd [9]: 11.6 nM | koff [9]: 0.000194 s⁻¹ | kon [9]: 16800 M⁻¹ s⁻¹ | EC50 (ng/ml) n1, inhibition of Heregulin-induced ErbB2 phosphorylation in MCF7 cells [4]: 28.8 ng/mL | EC50 (ng/ml) n2, inhibition of Heregulin-induced ErbB2 phosphorylation in MCF7 cells [4]: 34 ng/mL | % Inhibition @10 µg/ml, Heregulin-induced MCF7 cell proliferation [5]: 98% | EC50 (ng/ml), inhibition of Heregulin-induced MCF7 cell proliferation [5]: 2830 ng/mL | Kd [6]: 2.6 nM | koff [6]: 0.000273 s⁻¹ | kon [6]: 103000 M⁻¹ s⁻¹ | N1 % Inhibition @40 µg/ml, BT474 cell proliferation [8]: 35% | N1 EC50 (ng/ml), inhibition of BT474 cell proliferation [8]: 131 ng/mL | N2 % Inhibition @40 µg/ml, BT474 cell proliferation [8]: 29% | N2 EC50 (ng/ml), inhibition of BT474 cell proliferation [8]: 66.3 ng/mL
B3: monoclonal antibody 1.96 (antibody, V domains shown)
VH: B1 VH
VL: B1 VL with T40A, I54F, N82S, N83S, F104L
notes: as for B1

EC50 (ng/ml) n1, inhibition of Heregulin-induced ErbB2 phosphorylation in MCF7 cells [4]: > 10000 ng/mL | EC50 (ng/ml), inhibition of Heregulin-induced MCF7 cell proliferation [5]: > 10000 ng/mL
B4: monoclonal antibody 1.71.3 (antibody, V domains shown)
VH: EVQLVESGGGLVQPGGSLRLSCTASGFPFSSYDMHWVRQATGKGLEWVSAIGTAGDTFYPGSVKGRFTISRENAKNSLYLQMNSLRAGDTAVYYCAREGYSSGRYFYYGMDVWGQGTTVTVSS
VL: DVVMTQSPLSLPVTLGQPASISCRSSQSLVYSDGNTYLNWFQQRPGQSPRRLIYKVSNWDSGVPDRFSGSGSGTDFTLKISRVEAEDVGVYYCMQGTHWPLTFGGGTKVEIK
